Measurements from paper PMC11432317.

Biological target: receptor binding domain (RBD) of the SARS-CoV-2 spike protein (residues 319-541) (SARS-CoV-2) (UniProt P0DTC2)
Assay: SPR

wild-type sACE2-Fc (soluble ACE2, residues 1-615, fused to human IgG Fc) (from UniProt Q9BYF1 18-615) (Fc fusion)
Kd: 23.2 nM
